Results taken from paper PMC4163903.

System: ABD-B homeodomain (ABD-B HD) (Drosophila)
Experiment: EMSA

Substance: abd-A probe
- Kd: 5.48 nM
